Test results: publication PMC2441797

Biological target: recombinant PARP-1 (rPARP-1) (UniProt P09874 1-1014)
Test: Southwestern blot

Chain of recombinant PARP-1 (rPARP-1) (P09874 whole entry): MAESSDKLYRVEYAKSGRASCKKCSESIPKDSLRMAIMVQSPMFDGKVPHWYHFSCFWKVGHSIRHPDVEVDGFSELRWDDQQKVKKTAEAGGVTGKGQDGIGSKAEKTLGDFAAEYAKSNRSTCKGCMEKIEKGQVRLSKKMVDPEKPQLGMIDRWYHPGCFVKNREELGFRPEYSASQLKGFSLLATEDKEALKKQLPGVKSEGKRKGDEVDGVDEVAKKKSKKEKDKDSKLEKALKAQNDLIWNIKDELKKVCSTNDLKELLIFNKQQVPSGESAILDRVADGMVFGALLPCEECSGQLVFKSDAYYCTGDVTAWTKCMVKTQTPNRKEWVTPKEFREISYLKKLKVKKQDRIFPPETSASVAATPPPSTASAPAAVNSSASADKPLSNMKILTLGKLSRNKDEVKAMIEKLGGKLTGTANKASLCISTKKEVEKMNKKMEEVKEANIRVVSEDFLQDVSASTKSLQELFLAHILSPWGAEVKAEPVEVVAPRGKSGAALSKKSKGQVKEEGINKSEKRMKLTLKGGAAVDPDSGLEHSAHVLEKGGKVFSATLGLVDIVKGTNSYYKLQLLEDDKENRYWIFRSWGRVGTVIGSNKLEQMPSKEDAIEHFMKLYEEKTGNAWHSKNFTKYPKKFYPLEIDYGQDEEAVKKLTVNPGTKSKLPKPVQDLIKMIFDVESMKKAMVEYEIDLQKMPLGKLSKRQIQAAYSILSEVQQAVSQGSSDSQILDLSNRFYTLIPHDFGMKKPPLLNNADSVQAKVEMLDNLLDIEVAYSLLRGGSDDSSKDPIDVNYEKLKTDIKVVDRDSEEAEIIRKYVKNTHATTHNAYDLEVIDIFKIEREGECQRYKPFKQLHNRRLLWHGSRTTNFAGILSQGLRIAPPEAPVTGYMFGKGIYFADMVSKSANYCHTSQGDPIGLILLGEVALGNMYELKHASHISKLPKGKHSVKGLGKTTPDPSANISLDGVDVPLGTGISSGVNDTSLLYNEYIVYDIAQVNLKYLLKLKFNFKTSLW

AGGGCGGTGTGGGAAGAGGGAAGAGGGGGAGG (structured_DNA) [32R (KRAS NHE G-quadruplex), radiolabelled]
binding result: binds
